Results: publication PMC4005694, “Archaeal aminoacyl-tRNA synthetases interact with the ribosome to recycle tRNAs” (Nucleic Acids Research, 2014)

B3: Methanothermobacter thermautotrophicus arginyl-tRNA synthetase (enzyme, M. thermautotrophicus, UniProt O27496 1-560, looked up)
chain: MFRYIEKEARDSITAALEKLGIKVPPEIKLEEPPNPQLGDLASTVSFELAGKLRRAPIEITADIMSVIETPEIFETIESKGPYINFFVDYGRFSSRLLESIQDDYGSHPPRDERVILEHTSANPNGPLHIGHIRNAIIGDSLARILRMAGYDVETQYYVNDMGRQIAMIVWGLLNLDGDLEDYPGDKMDHRVGKLYFEVNQRLKENPGIRDEVDELIRKYEAGENEELFRKVVEYCLSGMEETMKRLHVHHDRFVWEGQFVRDGTVDRVIESLRKTGYTGENDVLYLDLEEFGLEKELVLTRSDGTSLYSTRDIAYHLQKSEEGDVIIDVLGSDHKLAAEQVGIAVELLGGKRPEVIFYEFITLPEGSMSTRRGVFISVDELMDEAHSRALHEVKKRRDLPDDVADDIAESIGNGAIRYYIARLSPEKHIVFRWDDALSFERGCASIQYAHARACKLLEKASFTGEEDIEDGWKPEGDERELVRLLARFPVVVEESALARRVHPVAQYAQDLANTFNSFYRSTPVIGSDFEGARLRLVDSVRKTLRNALNLLGIHAPETM
notes: arginyl-tRNA synthetase of M. thermautotrophicus; gene inserted into pPROex-Htb as a BamHI and XhoI cassette; His-tagged ArgRS is named only for the Ni-NTA SPR surface; also called ArgRS; source: E. coli BL21 Rosetta, purified (Ni-NTA agarose)

Key:
Conditions in all cases: both partners purified
[1] = molecular target: B3; assay: cross-linking; 70S ribosomes incubated with mSerRS or ArgRS; EDC; quenched; complexes pelleted; SDS-PAGE and mass spectrometry
[2] = molecular target: T1, elongation factor EF-G of M. thermautotrophicus, found in the cross-linking experiment with 70S ribosomes (M. thermautotrophicus (endogenous in M. …, UniProt O27131 1-730)); assay: as above
T1 construct: EF-G of M. thermautotrophicus, Mr 81 kDa as printed; source: endogenous, in the 70S ribosome preparation from M. thermautotrophicus cells
T1 sequence (looked up): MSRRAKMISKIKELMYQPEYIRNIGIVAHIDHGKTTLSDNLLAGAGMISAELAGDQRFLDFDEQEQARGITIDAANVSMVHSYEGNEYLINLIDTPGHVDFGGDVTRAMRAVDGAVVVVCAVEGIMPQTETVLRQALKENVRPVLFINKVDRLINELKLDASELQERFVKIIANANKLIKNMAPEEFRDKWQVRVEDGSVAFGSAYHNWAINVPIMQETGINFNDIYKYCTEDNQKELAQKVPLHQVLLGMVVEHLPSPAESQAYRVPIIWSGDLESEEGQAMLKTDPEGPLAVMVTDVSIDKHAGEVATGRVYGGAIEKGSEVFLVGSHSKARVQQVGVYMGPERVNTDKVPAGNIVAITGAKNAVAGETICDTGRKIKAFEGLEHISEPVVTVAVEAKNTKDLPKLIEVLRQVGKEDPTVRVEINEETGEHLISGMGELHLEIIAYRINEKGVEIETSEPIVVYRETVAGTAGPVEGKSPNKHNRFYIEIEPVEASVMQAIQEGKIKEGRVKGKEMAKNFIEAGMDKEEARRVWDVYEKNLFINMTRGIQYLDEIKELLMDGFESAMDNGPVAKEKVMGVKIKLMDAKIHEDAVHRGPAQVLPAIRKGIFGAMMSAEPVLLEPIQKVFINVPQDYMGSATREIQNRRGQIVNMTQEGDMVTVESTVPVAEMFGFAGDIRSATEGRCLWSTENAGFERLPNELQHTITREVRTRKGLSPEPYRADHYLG

[3] = molecular target: T2, Methanothermobacter thermautotrophicus methanogenic-type seryl-tRNA synthetase (M. thermautotrophicus, UniProt O27194 1-513); assay: SPR; mSerRS amine-coupled to a CM5 chip (~800 RU), ribosomal proteins or controls as analytes; 25°C, Biacore T100, 10 µl/min; steady state affinity model
T2 construct: methanogenic-type seryl-tRNA synthetase (mSerRS) of M. thermautotrophicus; Labelled with DY-495 in the MST experiment with L12; coupled by amines to a CM5 chip in SPR; also called mSerRS; SerRS
T2 sequence (looked up): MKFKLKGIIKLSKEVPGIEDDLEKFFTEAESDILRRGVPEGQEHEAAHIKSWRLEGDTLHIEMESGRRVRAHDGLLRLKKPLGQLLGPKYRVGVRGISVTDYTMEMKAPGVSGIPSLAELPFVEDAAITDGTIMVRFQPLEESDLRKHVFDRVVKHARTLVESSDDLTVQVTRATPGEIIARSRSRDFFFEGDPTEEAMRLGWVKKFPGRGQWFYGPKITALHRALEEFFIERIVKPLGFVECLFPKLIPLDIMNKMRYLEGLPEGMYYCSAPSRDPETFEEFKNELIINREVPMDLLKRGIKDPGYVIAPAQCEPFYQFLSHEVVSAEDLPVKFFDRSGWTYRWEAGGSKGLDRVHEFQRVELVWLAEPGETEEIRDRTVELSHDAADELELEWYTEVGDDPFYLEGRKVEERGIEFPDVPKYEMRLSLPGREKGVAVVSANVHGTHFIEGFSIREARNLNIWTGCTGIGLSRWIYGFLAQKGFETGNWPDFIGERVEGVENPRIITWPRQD

[4] = molecular target: B3; assay: SPR; ArgRS with ribosomal proteins; Ni-NTA surface used to immobilise His-tagged ArgRS, L6 or L12; which was held for which pair is not told; 25°C, Biacore T100
[5] = molecular target: T2, Methanothermobacter thermautotrophicus …; assay: MST; labelled mSerRS kept constant, unlabelled L12 titrated 0.528 nM-17.32 µM; Monolith NT.115

B1: ribosomal protein L3p of M. thermautotrophicus, as it stands in the ribosome (natural protein, UniProt O26110 1-337, looked up)
chain: MARHHQPRKGSVAFSPRKRAARETPRVKSWPQVDEPGLLALAGYKAGMTHVMMVDNQKNSPTEGMEVSTPVTILEVPPLTVMAVRTYEKTSRGLKTLGEVLATETKDDLRRKLTPPADDYDQEAAIEKIRSNMEYVADVRVIVHTNPRLASVPKKKPEVFECGLGGKTPEEKFEYALEILGKDVRASEIFSEGAFVDAIAVTKGKGFQGPVKRWGIRIQYGKAARSSKGRHIGSLGPWTPSRTMWTVPQAGQMGYHRRTEYNKQILKIGDASEADLVNPDGGFVRYGLVRNDYVMIKGSVPGPTKRLVVLRKAIRAAGKQEEAPQINYISTASKQGV
notes: ribosomal protein L3 of M. thermautotrophicus, Mr 37 kDa as printed; Cross-linked while part of the ribosome; source: endogenous, in 70S ribosomes purified from M. thermautotrophicus cells
Q: Does B1 bind [1]?
A: Result: binds

B2: ribosomal protein L10 (P0 homologue) of M. thermautotrophicus, as it stands in the ribosome (natural protein, UniProt O27717 1-336, looked up)
chain: MAHVAEWKKKEVQELHDLIKGYEVVGIANLADIPARQLQKMRQTLRDSALIRMSKKTLISLALEKAGRELENVDSLSDYMEGQPALIFTDMNPFKLFKILEDSKTPAPAKPGAIAPDDIVVPKGDTGFAPGPILGELQQIGIPAKIEKGKIVVSNDHVVVKAGEEIPPKVAGILTRLDIQPLEVGIDLRAAYENQTVYTADVLTIDEEKTLSDIQKAFSQAFNLSVNAVIYTRETMPAIIQKAASKSFNLAYNASILTSETTDLLLAKAYAQMLALAAAAAEINDEAVDDELKEKLSSRAAAPAPEEKEEEVEEEAEEEEEEEEEDAAAGLGALFG
notes: ribosomal protein L10 (P0 homologue) of M. thermautotrophicus, Mr 37 kDa as printed; Cross-linked while part of the ribosome; source: endogenous, in 70S ribosomes purified from M. thermautotrophicus cells
Q: Does B2 bind [1]?
A: Result: binds

Q: Does B3 bind [2]?
A: Result: binds

B4: recombinant ribosomal protein L3 of M. thermautotrophicus (natural protein, UniProt O26110 1-337, looked up)
chain: MARHHQPRKGSVAFSPRKRAARETPRVKSWPQVDEPGLLALAGYKAGMTHVMMVDNQKNSPTEGMEVSTPVTILEVPPLTVMAVRTYEKTSRGLKTLGEVLATETKDDLRRKLTPPADDYDQEAAIEKIRSNMEYVADVRVIVHTNPRLASVPKKKPEVFECGLGGKTPEEKFEYALEILGKDVRASEIFSEGAFVDAIAVTKGKGFQGPVKRWGIRIQYGKAARSSKGRHIGSLGPWTPSRTMWTVPQAGQMGYHRRTEYNKQILKIGDASEADLVNPDGGFVRYGLVRNDYVMIKGSVPGPTKRLVVLRKAIRAAGKQEEAPQINYISTASKQGV
notes: ribosomal protein L3 of M. thermautotrophicus; gene inserted into pGEX-6P-2 via BamHI and EcoRI; The methods say both that the GST tag was removed and that GST-tagged proteins are appropriate for SPR; source: E. coli BL21 Rosetta, purified (GST-Sepharose)
Q: How did the Kd [3] turn out when B4 was run?
A: Its Kd is 54 nM.

Q: Does B4 bind [4]?
A: Result: binds

B5: recombinant ribosomal protein L6 of M. thermautotrophicus (natural protein)
chain: not shown
notes: ribosomal protein L6 of M. thermautotrophicus; whole-length gene amplified from genomic DNA, cloned into pPROex-Htb via BamHI and SalI; source: E. coli BL21 Rosetta, purified (Ni-NTA agarose)
Q: What does the source list for B5?
A: Kd [3]: 240 nM; binding result [4]: binds

B6: recombinant ribosomal protein L10 of M. thermautotrophicus (natural protein, UniProt O27717 1-336, looked up)
chain: MAHVAEWKKKEVQELHDLIKGYEVVGIANLADIPARQLQKMRQTLRDSALIRMSKKTLISLALEKAGRELENVDSLSDYMEGQPALIFTDMNPFKLFKILEDSKTPAPAKPGAIAPDDIVVPKGDTGFAPGPILGELQQIGIPAKIEKGKIVVSNDHVVVKAGEEIPPKVAGILTRLDIQPLEVGIDLRAAYENQTVYTADVLTIDEEKTLSDIQKAFSQAFNLSVNAVIYTRETMPAIIQKAASKSFNLAYNASILTSETTDLLLAKAYAQMLALAAAAAEINDEAVDDELKEKLSSRAAAPAPEEKEEEVEEEAEEEEEEEEEDAAAGLGALFG
notes: ribosomal protein L10 (P0 homologue) of M. thermautotrophicus; gene inserted into pGEX-6P-2 via BamHI and SalI; The methods say both that the GST tag was removed and that GST-tagged proteins are appropriate for SPR; also called P0; source: E. coli BL21 Rosetta, purified (GST-Sepharose)
Q: What does the source list for B6?
A: Kd [3]: 39 nM; binding result [4]: binds

B7: recombinant ribosomal protein L12 of M. thermautotrophicus (natural protein, UniProt P05394 1-101, looked up)
chain: MEYIYAAMLLHTTGKEINEENVKSVLEAAGAEVDDARVKALIAALEDVDIEEAMETTAVAAAPAAAAAPAAAEEAEEEAEEEEEEEEAEEEAAAGLGALFG
notes: ribosomal protein L12 (P1 homologue) of M. thermautotrophicus; whole-length gene amplified from genomic DNA, cloned into pPROex-Htb via NcoI and SalI; also called P1; source: E. coli BL21 Rosetta, purified (Ni-NTA agarose)
Q: Which Kd [5] does the source give for B7 here?
A: Its Kd is 460 nM.

Q: And the Kd [3]?
A: Its Kd is 170 nM.
